Reference: patent US20220089743A1 (Chugai, published 2022)
Where a chain is given by its changes, count along the chain named.

B1: DQN0344H0976/L0591//DQN0385H1270/L0681-F6 (bispecific antibody)
heavy 1: QVQLVESGGGVVQPGGSLRLSCAASGFTFSSAYWMVWVRQAPGQGLEWMGAVYGGSDTTYYAKWTEGRFTISRDTSKNTLYLQMNSLRAEDTAVYYCAREPLNYYYYGELNLWGQGTLVTVSSASTKGPSVFPLAPSSKSTSGGTAALGCLVKDYFPEPVTVSWNSGALTSGVHTFPAVLKSSGLYSLSSVVTVPSSSLGTQTYICNVNHKPSNTKVDKRVEPKSCDKTHTCPPCPAPELRRGPSVFLFPPKPKDTLMISRTPEVTCVVVDVSHEDPEVKFNWYVDGVEVHNAKTKPREEQYNSTYRVVSVLTVLHQDWLNGKEYKCKVSNKALPAPIEKTISKAKGQPREPQVYTLPPSREEMTKNQVSLTCLVKGFYPSDIAVEWESNGQPENNYKTTPPYLDSDGSFFLYSKLTVDKSRWQEGNVFSCSVLHEALHAHYTREELSLSP
light 1: DIQMTQSPSSLSASVGDRVTITCQATEEIYSGLAWYQQKPGKAPKLLIYYVSTLYEGIPARFSGSGSGTDFTLTISSLEPEDFAVYYCQTYEDVSAVTFGQGTKVEIKRTVAAPSVFIFPPSDEQLKSGTAEVVCLLNNFYPREAKVQWKVDNALQSGNSEESVTEQDSKDSTYSLSSTLTLSKADYEKHKVYACEVTHQGLSSPVTKSFNRGEC
heavy 2: QVQLVESGGGVVQPGRSLRLSCAASGFTFSEWYFMSWVRQAPGKGLEWVASIDTGSGSIDYAEWVEGRFTISRDNSKNTLYLQMNSLRAEDTAVYYCARDIGIDYNFWGPGTLVTVSSASTKGPSVFPLAPSSKSTSGGTAALGCLVEDYFPEPVTVSWNSGALTSGVHTFPAVLESSGLYSLSSVVTVPSSSLGTKTYICNVNHKPSNTKVDKRVEPKSCDKTHTCPPCPAPELRRGPSVFLFPPKPKDTLMISRTPEVTCVVVDVSHEDPEVKFNWYVDGVEVHNAKTKPREEQYNSTYRVVSVLTVLHQDWLNGKEYKCKVSNKALPAPIEKTISKAKGQPREPQVYTLPPSRKEMTKNQVSLTCLVKGFYPSDIAVEWESNGQPENNYKTTPPYLDSDGSFFLYSKLTVDKSRWQQGNVFSCSVLHEALHAHYTRKELSLSP
light 2: DIQMTQSPSSLSASVGDRVTITCQTTQSISSYLNWYQQKPGQPPKLLIYYASTKAEGIPARFSGSGLGTDFTLTISSLEPEDFAVYYCHYGISKVSFGQGTKVEIKRTVAAPSVFIFPPSDEQLKSGTAKVVCLLNNFYPREAKVQWKVDNALQSGNSKESVTEQDSKDSTYSLSSTLTLSKADYEKHKVYACEVTHQGLSSPVTKSFNRGEC
B2: DQN0344H0976/L0591//DQN0385H1352/L0681-F6 (bispecific antibody)
heavy 1: B1 heavy 1
light 1: B1 light 1
heavy 2: B1 heavy 2 with T28E
light 2: B1 light 2
B3: DQN0344H1013/L0620//DQN0385H1270/L0681-F6 (bispecific antibody)
heavy 1: B1 heavy 1 with G16R, L112V
light 1: B1 light 1 with E28N, Y55A, E56Y
heavy 2: B1 heavy 2
light 2: B1 light 2
B4: DQN0344H0976/L0591//DQN0385H1527/L0605-F6 (bispecific antibody)
heavy 1: B1 heavy 1
light 1: B1 light 1
heavy 2: B1 heavy 2 with S30A, E31S
light 2: B1 light 2 with L67S

biological target: HLA-DQ2.5 on IHW09023 cells loaded with gamma 3 gliadin peptide (human; wheat); assay: cell-based or functional assay

| Binder | IC50, γ3 gliadin TCR, 100 µM γ3 gliadin [ng/mL] |
| --- | --- |
| B1 | 2.4 |
| B2 | 2.99 |
| B3 | 2.63 |
| B4 | 2.09 |

biological target: HLA-DQ2.5 on IHW09023 cells loaded with gamma 1 gliadin peptide (human; wheat); assay: cell-based or functional assay

| Binder | IC50, γ1 gliadin TCR, 250 nM γ1 gliadin [ng/mL] |
| --- | --- |
| B1 | 1.05 |
| B2 | 1.11 |
| B3 | 1.11 |
| B4 | 0.59 |

biological target: HLA-DQ2.5 on IHW09023 cells loaded with BC hordein peptide (human; barley); assay: cell-based or functional assay

| Binder | IC50, BC hordein TCR, 250 nM BC hordein [ng/mL] |
| --- | --- |
| B1 | 12 |
| B2 | 10.8 |
| B3 | 7.54 |
| B4 | 6.54 |

biological target: HLA-DQ2.5 on IHW09023 cells loaded with gamma 4d gliadin peptide (human; wheat); assay: cell-based or functional assay

| Binder | IC50, γ4d gliadin TCR, 100 µM γ4d gliadin [ng/mL] |
| --- | --- |
| B1 | 11.8 |
| B2 | 9.82 |
| B3 | 13.1 |
| B4 | 11.4 |

biological target: HLA-DQ2.5 on IHW09023 cells loaded with gamma 2 gliadin peptide (human; wheat); assay: cell-based or functional assay

| Binder | IC50, γ2 gliadin TCR, 250 nM γ2 gliadin [ng/mL] |
| --- | --- |
| B1 | 182 |
| B2 | 284 |
| B3 | 322 |
| B4 | 637 |

biological target: HLA-DQ2.5 on IHW09023 cells loaded with omega1/2 gliadin peptide (human; wheat); assay: cell-based or functional assay

| Binder | IC50, ω1 gliadin TCR, 25 µM ω1/2 gliadin [ng/mL] | IC50, ω2 gliadin TCR, 250 nM ω1/2 gliadin [ng/mL] |
| --- | --- | --- |
| B1 | 2.07 | 0.26 |
| B2 | 1.48 | 0.24 |
| B3 | 2.51 | 0.2 |
| B4 | 3.25 | 0.3 |

biological target: HLA-DQ2.5 on IHW09023 cells loaded with gamma 4a gliadin peptide (human; wheat); assay: cell-based or functional assay

| Binder | IC50, γ4a gliadin TCR, 25 µM γ4a gliadin [ng/mL] |
| --- | --- |
| B1 | 749 |
| B2 | 802 |
| B3 | 1160 |
| B4 | 1210 |

biological target: HLA-DQ2.5 on IHW09023 cells loaded with 33 mer gliadin peptide (human; wheat); assay: cell-based or functional assay

| Binder | IC50, α1b gliadin TCR, 250 nM 33mer gliadin [ng/mL] | IC50, α2 gliadin TCR, 250 nM 33mer gliadin [ng/mL] | IC50, α1a gliadin TCR, 250 nM 33mer gliadin [ng/mL] |
| --- | --- | --- | --- |
| B1 | 1.36 | 0.34 | – |
| B2 | 1.37 | 0.31 | 0.29 |
| B3 | 1.78 | 0.33 | 0.38 |
| B4 | 1.84 | 0.51 | 0.7 |
